In publication PMC11988251:

Target: HuROR2-mFc
Test: ELISA

| EC50 (pH 6.0, 2.5 g/L sodium bicarbonate) [mg/L] | EC50 (pH 7.4, 2.5 g/L sodium bicarbonate) | EC50 (pH 6.0, 1.26 g/L sodium bicarbonate, 0.09 g/L L-lactic acid) [mg/L] | EC50 (pH 7.4, 1.26 g/L sodium bicarbonate, 0.09 g/L L-lactic acid) | Substance |
| --- | --- | --- | --- | --- |
| 0.0563 | no meaningful EC50 could be calculated | – | – | BA3021 |
| – | – | 0.0119 | no meaningful EC50 could be calculated | BA302 |
